# In patent US10227653B2, “High MAST2-affinity polypeptides and uses thereof” (INSTITUT PASTEUR, priority 2011, dated 2019):
# Assays:
# [1] = biological target: T1, PDZ domain of the human MAST2 protein (MAST2-PDZ) (Homo sapiens, UniProt Q6P0Q8); experiment: Isothermal Titration Calorimetry (ITC) with MAST2-PDZ; type: binding; settings: 298 K, 50 mM Tris-HCl, 150 mM NaCl, pH7.5, read-out: Kd (μM) (dissociation constant) MAST2-PDZ
# T1 sequence (Q6P0Q8 1101-1193 limits assumed): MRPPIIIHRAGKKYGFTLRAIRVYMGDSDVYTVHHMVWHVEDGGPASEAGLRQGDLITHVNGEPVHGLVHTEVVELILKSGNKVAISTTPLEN
# [2] = biological target: T2, PDZ domain of the human PTPN4 protein (PTPN4-PDZ) (Homo sapiens, UniProt P29074); experiment: ITC with PTPN4-PDZ; type: binding
# T2 construct: the PDZ domain of the human PTPN4 protein
# T2 sequence (P29074 517-589 limits assumed): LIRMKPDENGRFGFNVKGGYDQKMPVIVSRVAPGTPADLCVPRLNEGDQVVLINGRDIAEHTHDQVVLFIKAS
# Method: The affinity of the polypeptides of the invention for the PDZ domain of the human PTPN4 protein is low, i.e., the constant of dissociation (KD) of the complex formed by the polypeptide of the invention with the PDZ domain of the human PTPN4 protein is high, in particular is more than 500 μM (for example as measured by ITC, in particular in the same conditions and with the same concentrations as for the MAST2-PDZ above).
# ITC measurements were made using VP-ITC VP-ITC200 calorimeters (MicroCal). MAST2-PDZ was titrated at 298 K by injections of the polypeptides (25-45 consecutive aliquots of 5-7 μL at 6-min intervals). Raw data were normalized and corrected for heats of dilution of polypeptides. Equilibrium dissociation constants (KD) were determined performing nonlinear curve fitting of the corrected data to a model with one set of sites using the Origin7.0 software (OriginLab). All samples were prepared in a buffer containing 50 mM Tris-HCl, 150 mM NaCl, pH7.5. Data were recorded with MAST2-PDZ at an initial concentration of 30 μM and with peptide at initial concentrations ranging from 250 μM to 350 μM.
substance,measurement,setting,value
ATT13: polypeptide ending with the MAST-2 binding domain […] (SEQ ID NO:235) (SWESHKSGGETRL; not fully specified),Kd,[1],0.57 µM
same,Kd,[2],160 µM
